The results in this text go back to patent publication US20200199241A1 (Chugai, published 2020).

Sequences and labels used below:
B1: IgG1-F252 (antibody)
heavy: QVQLQESGPGLVKPSETLSLTCAVSGHSISHDHAWSWVRQPPGEGLEWIGFISYSGITNYNPSLQGRVTISRDNSKNTLYLQMNSLRAEDTAVYYCARSLARTTAMDYWGEGTLVTVSSASTKGPSVFPLAPSSKSTSGGTAALGCLVKDYFPEPVTVSWNSGALTSGVHTFPAVLQSSGLYSLSSVVTVPSSSLGTQTYICNVNHKPSNTKVDKKVEPKSCDKTHTCPPCPAPELLGGPSVFLFPPKPKDTLYISRTPEVTCVVVDVSHEDPEVKFNWYVDGVEVHNAKTKPREEQYNSTYRVVSVLTVLHQDWLNGKEYKCKVSNKALPAPIEKTISKAKGQPREPQVYTLPPSRDELTKNQVSLTCLVKGFYPSDIAVEWESNGQPENNYKTTPPVLDSDGSFFLYSKLTVDKSRWQQGNVFSCSVWHEALHYHYTQKSLSLSP
light: not shown
notes: EU numbering; copies: 2 + 2
B2: IgG1-F254 (antibody)
heavy: QVQLQESGPGLVKPSETLSLTCAVSGHSISHDHAWSWVRQPPGEGLEWIGFISYSGITNYNPSLQGRVTISRDNSKNTLYLQMNSLRAEDTAVYYCARSLARTTAMDYWGEGTLVTVSSASTKGPSVFPLAPSSKSTSGGTAALGCLVKDYFPEPVTVSWNSGALTSGVHTFPAVLQSSGLYSLSSVVTVPSSSLGTQTYICNVNHKPSNTKVDKKVEPKSCDKTHTCPPCPAPELLGGPSVFLFPPKPKDTLWISRTPEVTCVVVDVSHEDPEVKFNWYVDGVEVHNAKTKPREEQYNSTYRVVSVLQVLHQDWLNGKEYKCKVSNKALPAPIEKTISKAKGQPREPQVYTLPPSRDELTKNQVSLTCLVKGFYPSDIAVEWESNGQPENNYKTTPPVLDSDGSFFLYSKLTVDKSRWQQGNVFSCSVYHEALHYHYTQKSLSLSP
light: not shown
notes: EU numbering; copies: 2 + 2
B3: IgG1-F257 (antibody)
heavy: QVQLQESGPGLVKPSETLSLTCAVSGHSISHDHAWSWVRQPPGEGLEWIGFISYSGITNYNPSLQGRVTISRDNSKNTLYLQMNSLRAEDTAVYYCARSLARTTAMDYWGEGTLVTVSSASTKGPSVFPLAPSSKSTSGGTAALGCLVKDYFPEPVTVSWNSGALTSGVHTFPAVLQSSGLYSLSSVVTVPSSSLGTQTYICNVNHKPSNTKVDKKVEPKSCDKTHTCPPCPAPELLGGPSVFLFPPKPKDTLYISRTPEVTCVVVDVSHEDPEVKFNWYVDGVEVHNAKTKPREEQYNSTYRVVSVLAVLHQDWLNGKEYKCKVSNKALPAPIEKTISKAKGQPREPQVYTLPPSRDELTKNQVSLTCLVKGFYPSDIAVEWESNGQPENNYKTTPPVLDSDGSFFLYSKLTVDKSRWQQGNVFSCSVYHEALHYHYTQKSLSLSP
light: not shown
notes: EU numbering; copies: 2 + 2
B4: IgG1-F263 (antibody)
heavy: QVQLQESGPGLVKPSETLSLTCAVSGHSISHDHAWSWVRQPPGEGLEWIGFISYSGITNYNPSLQGRVTISRDNSKNTLYLQMNSLRAEDTAVYYCARSLARTTAMDYWGEGTLVTVSSASTKGPSVFPLAPSSKSTSGGTAALGCLVKDYFPEPVTVSWNSGALTSGVHTFPAVLQSSGLYSLSSVVTVPSSSLGTQTYICNVNHKPSNTKVDKKVEPKSCDKTHTCPPCPAPELLGGPSVFLFPPKPKDTLYISRTPEVTCVVVDVSHEDPEVKFNWYVDGVEVHNAKTKPREEQYNSTYRVVSVLQVLHHDWLNGKEYKCKVSNKALPAPIEKTISKAKGQPREPQVYTLPPSRDELTKNQVSLTCLVKGFYPSDIAVEWESNGQPENNYKTTPPVLDSDGSFFLYSKLTVDKSRWQQGNVFSCSVMHEALHYHYTQKSLSLSP
light: not shown
notes: EU numbering; copies: 2 + 2
B5: IgG1-F256 (antibody)
heavy: QVQLQESGPGLVKPSETLSLTCAVSGHSISHDHAWSWVRQPPGEGLEWIGFISYSGITNYNPSLQGRVTISRDNSKNTLYLQMNSLRAEDTAVYYCARSLARTTAMDYWGEGTLVTVSSASTKGPSVFPLAPSSKSTSGGTAALGCLVKDYFPEPVTVSWNSGALTSGVHTFPAVLQSSGLYSLSSVVTVPSSSLGTQTYICNVNHKPSNTKVDKKVEPKSCDKTHTCPPCPAPELLGGPSVFLFPPKPKDTLWISRTPEVTCVVVDVSHEDPEVKFNWYVDGVEVHNAKTKPREEQYNSTYRVVSVLQVLHADWLNGKEYKCKVSNKALPAPIEKTISKAKGQPREPQVYTLPPSRDELTKNQVSLTCLVKGFYPSDIAVEWESNGQPENNYKTTPPVLDSDGSFFLYSKLTVDKSRWQQGNVFSCSVYHEALHYHYTQKSLSLSP
light: not shown
notes: EU numbering; copies: 2 + 2
B6: IgG1-F258 (antibody)
heavy: QVQLQESGPGLVKPSETLSLTCAVSGHSISHDHAWSWVRQPPGEGLEWIGFISYSGITNYNPSLQGRVTISRDNSKNTLYLQMNSLRAEDTAVYYCARSLARTTAMDYWGEGTLVTVSSASTKGPSVFPLAPSSKSTSGGTAALGCLVKDYFPEPVTVSWNSGALTSGVHTFPAVLQSSGLYSLSSVVTVPSSSLGTQTYICNVNHKPSNTKVDKKVEPKSCDKTHTCPPCPAPELLGGPSVFLFPPKPKDTLYISRTPEVTCVVVDVSHEDPEVKFNWYVDGVEVHNAKTKPREEQYNSTYRVVSVLQVLHQDWLNGKEYKCKVSNKALPAPIEKTISKAKGQPREPQVYTLPPSRDELTKNQVSLTCLVKGFYPSDIAVEWESNGQPENNYKTTPPVLDSDGSFFLYSKLTVDKSRWQQGNVFSCSVYHEALHYHYTQKSLSLSP
light: not shown
notes: EU numbering; copies: 2 + 2
B7: IgG1-F260 (antibody)
heavy: QVQLQESGPGLVKPSETLSLTCAVSGHSISHDHAWSWVRQPPGEGLEWIGFISYSGITNYNPSLQGRVTISRDNSKNTLYLQMNSLRAEDTAVYYCARSLARTTAMDYWGEGTLVTVSSASTKGPSVFPLAPSSKSTSGGTAALGCLVKDYFPEPVTVSWNSGALTSGVHTFPAVLQSSGLYSLSSVVTVPSSSLGTQTYICNVNHKPSNTKVDKKVEPKSCDKTHTCPPCPAPELLGGPSVFLFPPKPKDTLYISRTPEVTCVVVDVSHEDPEVKFNWYVDGVEVHNAKTKPREEQYNSTYRVVSVLAVLHADWLNGKEYKCKVSNKALPAPIEKTISKAKGQPREPQVYTLPPSRDELTKNQVSLTCLVKGFYPSDIAVEWESNGQPENNYKTTPPVLDSDGSFFLYSKLTVDKSRWQQGNVFSCSVMHEALHYHYTQKSLSLSP
light: not shown
notes: EU numbering; copies: 2 + 2
B8: IgG1-F262 (antibody)
heavy: QVQLQESGPGLVKPSETLSLTCAVSGHSISHDHAWSWVRQPPGEGLEWIGFISYSGITNYNPSLQGRVTISRDNSKNTLYLQMNSLRAEDTAVYYCARSLARTTAMDYWGEGTLVTVSSASTKGPSVFPLAPSSKSTSGGTAALGCLVKDYFPEPVTVSWNSGALTSGVHTFPAVLQSSGLYSLSSVVTVPSSSLGTQTYICNVNHKPSNTKVDKKVEPKSCDKTHTCPPCPAPELLGGPSVFLFPPKPKDTLYISRTPEVTCVVVDVSHEDPEVKFNWYVDGVEVHNAKTKPREEQYNSTYRVVSVLAVLHHDWLNGKEYKCKVSNKALPAPIEKTISKAKGQPREPQVYTLPPSRDELTKNQVSLTCLVKGFYPSDIAVEWESNGQPENNYKTTPPVLDSDGSFFLYSKLTVDKSRWQQGNVFSCSVMHEALHYHYTQKSLSLSP
light: not shown
notes: EU numbering; copies: 2 + 2
B9: IgG1-F253 (antibody)
heavy: QVQLQESGPGLVKPSETLSLTCAVSGHSISHDHAWSWVRQPPGEGLEWIGFISYSGITNYNPSLQGRVTISRDNSKNTLYLQMNSLRAEDTAVYYCARSLARTTAMDYWGEGTLVTVSSASTKGPSVFPLAPSSKSTSGGTAALGCLVKDYFPEPVTVSWNSGALTSGVHTFPAVLQSSGLYSLSSVVTVPSSSLGTQTYICNVNHKPSNTKVDKKVEPKSCDKTHTCPPCPAPELLGGPSVFLFPPKPKDTLYISRTPEVTCVVVDVSHEDPEVKFNWYVDGVEVHNAKTKPREEQYNSTYRVVSVLTVLHQDWLNGKEYKCKVSNKALPAPIEKTISKAKGQPREPQVYTLPPSRDELTKNQVSLTCLVKGFYPSDIAVEWESNGQPENNYKTTPPVLDSDGSFFLYSKLTVDKSRWQQGNVFSCSVYHEALHYHYTQKSLSLSP
light: not shown
notes: EU numbering; copies: 2 + 2
B10: IgG1-F259 (antibody)
heavy: QVQLQESGPGLVKPSETLSLTCAVSGHSISHDHAWSWVRQPPGEGLEWIGFISYSGITNYNPSLQGRVTISRDNSKNTLYLQMNSLRAEDTAVYYCARSLARTTAMDYWGEGTLVTVSSASTKGPSVFPLAPSSKSTSGGTAALGCLVKDYFPEPVTVSWNSGALTSGVHTFPAVLQSSGLYSLSSVVTVPSSSLGTQTYICNVNHKPSNTKVDKKVEPKSCDKTHTCPPCPAPELLGGPSVFLFPPKPKDTLYISRTPEVTCVVVDVSHEFPEVKFNWYVDGVEVHNAKTKPREEQYNSTYRVVSVLTVLHQDWLNGKEYKCKVSNKALPAPIEKTISKAKGQPREPQVYTLPPSRDELTKNQVSLTCLVKGFYPSDIAVEWESNGQPENNYKTTPPVLDSDGSFFLYSKLTVDKSRWQQGNVFSCSVMHEALHYHYTQKSLSLSP
light: not shown
notes: EU numbering; copies: 2 + 2
B11: IgG1-F255 (antibody)
heavy: QVQLQESGPGLVKPSETLSLTCAVSGHSISHDHAWSWVRQPPGEGLEWIGFISYSGITNYNPSLQGRVTISRDNSKNTLYLQMNSLRAEDTAVYYCARSLARTTAMDYWGEGTLVTVSSASTKGPSVFPLAPSSKSTSGGTAALGCLVKDYFPEPVTVSWNSGALTSGVHTFPAVLQSSGLYSLSSVVTVPSSSLGTQTYICNVNHKPSNTKVDKKVEPKSCDKTHTCPPCPAPELLGGPSVFLFPPKPKDTLWISRTPEVTCVVVDVSHEDPEVKFNWYVDGVEVHNAKTKPREEQYNSTYRVVSVLTVLHADWLNGKEYKCKVSNKALPAPIEKTISKAKGQPREPQVYTLPPSRDELTKNQVSLTCLVKGFYPSDIAVEWESNGQPENNYKTTPPVLDSDGSFFLYSKLTVDKSRWQQGNVFSCSVYHEALHYHYTQKSLSLSP
light: not shown
notes: EU numbering; copies: 2 + 2
B12: IgG1-F261 (antibody)
heavy: QVQLQESGPGLVKPSETLSLTCAVSGHSISHDHAWSWVRQPPGEGLEWIGFISYSGITNYNPSLQGRVTISRDNSKNTLYLQMNSLRAEDTAVYYCARSLARTTAMDYWGEGTLVTVSSASTKGPSVFPLAPSSKSTSGGTAALGCLVKDYFPEPVTVSWNSGALTSGVHTFPAVLQSSGLYSLSSVVTVPSSSLGTQTYICNVNHKPSNTKVDKKVEPKSCDKTHTCPPCPAPELLGGPSVFLFPPKPKDTLYISRTPEVTCVVVDVSHEDPEVKFNWYVDGVEVHNAKTKPREEQYNSTYRVVSVLQVLHADWLNGKEYKCKVSNKALPAPIEKTISKAKGQPREPQVYTLPPSRDELTKNQVSLTCLVKGFYPSDIAVEWESNGQPENNYKTTPPVLDSDGSFFLYSKLTVDKSRWQQGNVFSCSVMHEALHYHYTQKSLSLSP
light: not shown
notes: EU numbering; copies: 2 + 2
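Also: antibodies captured on a Protein L sensor chip with human FcRn injected as analyte, KD calculated from fitted association and dissociation rate constants.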

The target in the test is T1, human FcRn (soluble human FcRn complexed with β2-microglobulin) (human, UniProt P61769 21-119, limits assumed).
T1 construct: also called hFcRn
T1 sequence (chain, as listed by the source limits assumed, chain 1 of 2): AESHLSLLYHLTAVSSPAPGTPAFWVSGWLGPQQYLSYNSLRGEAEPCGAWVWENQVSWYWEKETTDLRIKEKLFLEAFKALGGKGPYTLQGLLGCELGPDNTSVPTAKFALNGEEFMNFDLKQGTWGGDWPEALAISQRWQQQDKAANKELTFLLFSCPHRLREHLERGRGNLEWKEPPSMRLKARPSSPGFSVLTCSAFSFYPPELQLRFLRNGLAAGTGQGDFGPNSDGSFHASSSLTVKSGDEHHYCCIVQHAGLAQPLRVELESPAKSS
T1 sequence (P61769 21-119 limits assumed, chain 2 of 2): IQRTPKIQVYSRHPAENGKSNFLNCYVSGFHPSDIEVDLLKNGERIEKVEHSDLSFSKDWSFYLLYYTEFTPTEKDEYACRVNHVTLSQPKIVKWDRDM
The experiment in a line: SPR, pH 7.0. (In general: In SPR one partner is held on a chip, and binding of the other changes the refractive index at the surface.)
The Kd is the concentration at which binding is half-saturated. The low end stands for a tighter complex, the high end for a looser complex. Take B1: the affinity, expressed as Kd, was 1000 nM. In other words, the single-digit micromolar range.
The molecule B2 registered a Kd of 75 nM.
Next, B3: 500 nM.
Next, B4: 110 nM.
Under B5 stands 54 nM; under B6, 320 nM.
In turn, B7 gave a dissociation constant (Kd) of 130 nM. This Kd lies about 2.5-fold lower than the previous one.
As for B8, the affinity, expressed as Kd, was 190 nM. This Kd and that of the molecule before are within 1.5-fold of each other.
Next, B9: 710 nM.
Under B10 stands 280 nM; under B11, 110 nM; under B12, 84 nM.
